# Measured values published in patent US20230235013A1 (MABSOLVE, published 2023).
# Numbering of substitutions follows the chain as printed. Numbers in names are those of the source.
# B1: anti-CD20 human IgG1 L234R/L235V/G236R (antibody)
# heavy: QVQLQQPGAELVKPGASVKMSCKASGYTFTSYNMHWVKQTPGRGLEWIGAIYPGNGDTSYNQKFKGKATLTADKSSSTAYMQLSSLTSEDSAVYYCARSTYYGGDWYFNVWGAGTTVTVSSASTKGPSVFPLAPSSKSTSGGTAALGCLVKDYFPEPVTVSWNSGALTSGVHTFPAVLQSSGLYSLSSVVTVPSSSLGTQTYICNVNHKPSNTKVDKKVEPKSCDKTHTCPPCPAPERVRGPSVFLFPPKPKDTLMISRTPEVTCVVVDVSHEDPEVKFNWYVDGVEVHNAKTKPREEQYNSTYRVVSVLTVLHQDWLNGKEYKCKVSNKALPAPIEKTISKAKGQPREPQVYTLPPSRDELTKNQVSLTCLVKGFYPSDIAVEWESNGQPENNYKTTPPVLDSDGSFFLYSKLTVDKSRWQQGNVFSCSVMHEALHNHYTQKSLSLSPGK
# light: QIVLSQSPAILSASPGEKVTMTCRASSSVSYIHWFQQKPGSSPKPWIYATSNLASGVPVRFSGSGSGTSYSLTISRVEAEDAATYYCQQWTSNPPTFGGGTKLEIKRTVAAPSVFIFPPSDEQLKSGTASVVCLLNNFYPREAKVQWKVDNALQSGNSQESVTEQDSKDSTYSLSSTLTLSKADYEKHKVYACEVTHQGLSSPVTKSFNRGEC
# notes: copies: 2 + 2
# B2: anti-CD20 human IgG1 L234T/L235A/G236R (antibody)
# heavy: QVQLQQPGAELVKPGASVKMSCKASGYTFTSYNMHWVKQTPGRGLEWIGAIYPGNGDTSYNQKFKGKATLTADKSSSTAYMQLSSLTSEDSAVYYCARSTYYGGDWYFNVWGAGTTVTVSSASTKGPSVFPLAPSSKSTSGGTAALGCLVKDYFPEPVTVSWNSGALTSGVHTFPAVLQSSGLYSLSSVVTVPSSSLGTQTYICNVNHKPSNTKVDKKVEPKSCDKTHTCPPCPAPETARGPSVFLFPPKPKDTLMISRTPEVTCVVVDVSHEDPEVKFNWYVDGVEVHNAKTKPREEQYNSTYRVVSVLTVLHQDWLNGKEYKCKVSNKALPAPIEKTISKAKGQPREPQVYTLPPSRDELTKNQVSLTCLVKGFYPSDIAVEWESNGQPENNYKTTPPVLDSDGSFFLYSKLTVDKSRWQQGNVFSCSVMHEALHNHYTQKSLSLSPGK
# light: B1 light
# notes: also called 1-152; 2-54; copies: 2 + 2
# B3: anti-CD20 human IgG1 L234S/L235I/G236R (antibody)
# heavy: B1 heavy with R238S, V239I
# light: B1 light
# notes: also called 2-49; copies: 2 + 2
# B4: anti-CD20 human IgG1 L234S/L235N/G236R (antibody)
# heavy: B1 heavy with R238S, V239N
# light: B1 light
# notes: copies: 2 + 2
# B5: anti-CD20 human IgG1 L234S/L235M/G236R (antibody)
# heavy: B1 heavy with R238S, V239M
# light: B1 light
# notes: copies: 2 + 2
# B6: anti-CD20 human IgG1 L234S/L235K/G236R (antibody)
# heavy: B1 heavy with R238S, V239K
# light: B1 light
# notes: copies: 2 + 2
# B7: anti-CD20 human IgG1 L234S/L235R/G236R (antibody)
# heavy: B1 heavy with R238S, V239R
# light: B1 light
# notes: also called 2-51; copies: 2 + 2
# B8: anti-CD20 human IgG1 L234S/L235E/G236R (antibody)
# heavy: B1 heavy with R238S, V239E
# light: B1 light
# notes: also called 2-46; copies: 2 + 2
# B9: anti-CD20 human IgG1 L234S/L235Q/G236R (antibody)
# heavy: B1 heavy with R238S, V239Q
# light: B1 light
# notes: copies: 2 + 2
# B10: anti-CD20 human IgG1 L234S/L235A/G236R (antibody)
# heavy: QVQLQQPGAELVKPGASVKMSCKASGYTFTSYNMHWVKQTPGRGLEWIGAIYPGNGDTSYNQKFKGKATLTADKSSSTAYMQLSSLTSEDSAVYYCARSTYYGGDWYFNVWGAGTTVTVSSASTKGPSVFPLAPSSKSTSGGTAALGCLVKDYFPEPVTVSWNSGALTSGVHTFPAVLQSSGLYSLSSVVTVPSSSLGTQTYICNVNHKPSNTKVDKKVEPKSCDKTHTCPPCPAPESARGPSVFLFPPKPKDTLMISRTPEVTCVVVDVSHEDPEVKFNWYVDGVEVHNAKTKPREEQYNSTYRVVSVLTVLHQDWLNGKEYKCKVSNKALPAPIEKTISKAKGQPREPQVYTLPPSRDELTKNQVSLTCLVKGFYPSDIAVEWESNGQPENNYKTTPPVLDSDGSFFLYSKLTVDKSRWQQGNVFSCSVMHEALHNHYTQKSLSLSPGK
# light: B1 light
# notes: also called 1-137; copies: 2 + 2
# B11: anti-CD20 human IgG1 L234S/L235S/G236R (antibody)
# heavy: B1 heavy with R238S, V239S
# light: B1 light
# notes: also called 1-149; copies: 2 + 2
# Target: T1, Histidine-tagged recombinant human FcγRI (CD64) (human, UniProt P12314 16-288)
# T1 construct: bought; also called Sino Biological Cat. No. 12056-H08H
# Experiment: SPR, culture supernatant, captured His-FcγRI;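 also: biacore T200 SPR at 25 °C, anti-His capture, supernatants of HEK293 cells expressing IgG1 Fc variants injected 1 min, reference-subtracted response read 55 s after injection start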
# Protocol: Binding analysis was carried out by surface plasmon resonance at 25° C. using a Biacore® T200 instrument with Biacore® T200 control software. The running buffer (HBS-EP+) consisted of 0.01 M HEPES pH 7.4, containing 0.15 M NaCl, 3 mM EDTA, and 0.05% v/v Surfactant P20. The sample compartment was held at 4° C. during analysis.
# The cell was activated by treatment with EDC/NHS for 7 min. The antibody was diluted to 5 μg/mL in 10 mM sodium acetate pH 4.5 and injected for 7 min at 5 μL/min. The flow cell was deactivated by injection of 1M ethanolamine for 7 min. This process was repeated in the absence of anti-his antibody on a separate flow cell to generate a reference surface. […] Samples of undiluted culture supernatants from HEK293 cells expressing human IgG1 antibodies comprising variant Fc regions were injected for 1 min at 30 μL/min and allowed to disassociate for 2 min. […] Therefore, regeneration between cycles was not necessary. Responses on the test flow cell (coupled with anti-His antibody) were analysed after subtraction of responses on the control flow cell (sham-coupled). The relative binding response was measured 55 sec after the beginning of sample injection. To account for any possible drift in response due to slow dissociation of the His-tagged FcγRI, the binding response was measured relative to a baseline interpolated between report points located before sample injection and at the end of dissociation.
# The whole experiment was repeated three times. Due to the relatively crude nature of the samples (variable refractive index, presence of culture media and other cellular products), some sensorgrams were unsatisfactory and were eliminated from analysis. The mean and standard deviation of binding response was then calculated for each sample.
row,Mean binding response,Binder
1,32.5 RU,B1
2,11.8 RU,B2
3,12 RU,B3
4,22.7 RU,B4
5,32 RU,B5
6,23.8 RU,B6
7,11.1 RU,B7
8,11.6 RU,B8
9,29.6 RU,B9
10,29.6 RU,B10
11,25.6 RU,B11
